Reference: patent US20110003753A1, “COMPOSITIONS AND METHODS FOR DISRUPTING THE FUNCTION OF THE TRANSCRIPTIONAL REPRESSOR COMPONENT Sin3A-PAH2 DOMAIN TO INDUCE DIFFERENTIATION AND GROWTH INHIBITION IN BREAST CANCER” (SAMUEL WAXMAN CANCER RESEARCH FOUNDATION, priority 2009, published 2011)

Key:
[1] = target: T1, PAH2 domain of Sin3A and MAD (Mus musculus, UniProt Q60520); assay: GST pull-down of MAD by the Sin3A PAH2 domain; type: binding
T1 construct: amino acids 306-450 of mSin3A; made in house; host or cells: E. coli (GST-PAH2); MAD from rabbit reticulocyte in vitro translation or immunoprecipitated from MDA-MB-231 lysate
T1 sequence (Q60520 306-450): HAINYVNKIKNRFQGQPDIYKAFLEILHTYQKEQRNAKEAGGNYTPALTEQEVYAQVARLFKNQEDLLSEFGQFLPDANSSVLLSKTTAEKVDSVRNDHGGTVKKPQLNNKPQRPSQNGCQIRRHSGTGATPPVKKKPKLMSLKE
Excerpt: FIG. 2: SID decoy peptide blocks interactions between Sin3 PAH2 and MAD and interferes with recruitment of members of the Sin3 co-repressor complex. A. GST pull-down of MAD by the Sin3A PAH2 domain is blocked by SID peptide. Sin3A PAH2 domain (amino acids 306-450) was expressed in E. coli as a GST fusion and used in a pull down assay for in vitro interaction with 35S-methionine labeled MAD (left panel) or MAD immunoprecipitated from MDA-MB-231 cell lysates (right panel). 25% of input is shown for in vitro translated MAD and 10% of input for immunoprecipitated MAD (input). Assays were performed using 15 μM Tat-SID or Tat-SID^SCR peptide unless otherwise indicated. […]
GST pull-down assays were performed using the ProFound™ pull-down GST protein:protein interaction kit (Pierce) according to the manufacturer's instructions. […] Gels containing samples from MDA-MB-231 cell lysates were analyzed by Western immunoblot according to standard protocols. Pulled-down MAD was detected using mouse monoclonal anti-MAD (F-1) antibody (Santa Cruz), anti-mouse secondary antibody (Jackson ImmunoResearch), and enhanced chemiluminescence (ECL, Peirce).

[2] = tested on: MMTV-Myc mouse breast cancer cells; assay: Phenotypic (morphology) changes in culture; type: cell-based
Excerpt: FIG. 1: Expression of a decoy peptide corresponding to MAD Sin3 interaction domain (SID) induces markers of differentiation and contact inhibition in MDA-MB-231 breast cancer cells. A. Schematic of the SID peptides and expression constructs used in this study. Shown in the upper panel are the design and sequence of the Tat-SID peptide and Tat-SID^SCR scrambled control. The Tat-SID peptide corresponds to amino acids 5-24 of MAD. This sequence binds Sin3 PAH2 with high affinity and has been previously used to study SID-PAH2 interactions in vitro. Peptides contain a leader sequence (YGRKKRRQGGG, SEQ ID No. 5) corresponding to the human immunodeficiency virus type 1 Tat arginine-rich RNA-binding motif (ARM), which has been mutated (RRR>GGG) to improve nuclear entry. B. Morphological changes induced by SID in MDA-MB-231 and MMTV-Myc. […] D. Confocal IF analyses showing the re-expression of membrane-associated E-cadherin induced by the expression of SID in MDA-MB-231 cells (top row) and MMTV-Myc cells (bottom row) E. Re-expression of nuclear RARβ in MDA-MB-231 cells detected by immunofluorescence microscopy. […]

Sin3B and MAD = assay: Mammalian two-hybrid assay, GAL4 DBD-Sin3B and VP16AD-MAD in 293T cells; type: cell-based; settings: 15 μM peptide applied to the cell culture medium
Excerpt: FIG. 2: SID decoy peptide blocks interactions between Sin3 PAH2 and MAD and interferes with recruitment of members of the Sin3 co-repressor complex. A. GST pull-down of MAD by the Sin3A PAH2 domain is blocked by SID peptide. Sin3A PAH2 domain (amino acids 306-450) was expressed in E. coli as a GST fusion and used in a pull down assay for in vitro interaction with 35S-methionine labeled MAD (left panel) or MAD immunoprecipitated from MDA-MB-231 cell lysates (right panel). 25% of input is shown for in vitro translated MAD and 10% of input for immunoprecipitated MAD (input). Assays were performed using 15 μM Tat-SID or Tat-SID^SCR peptide unless otherwise indicated. […] 293T cells were transfected with GAL4^uas×5-Tk-Luc reporter together with mammalian two-hybrid vectors expressing a fusion of Sin3B with GAL4 DNA binding domain (GAL4^DBD) and fusions of MAD and HDAC1 (columns 5-12 and 14-21, respectively) with VP16 activation domain (VP16^AD), as well as SID expression vectors, as indicated. […]
24 hours prior to transfection, 293T cells were plated at 50-60% confluence on 48-well plates. […] 48 hours post-transfection luciferase activity was measured using the Dual Luciferase assay system (Promega) on a Mithras LB940 plate reader (Berthold Technologies). […]

“YGRKKRRQGGGVRMNIQMLLEAADYLERRER [SID peptide]” was tested, and the “blocking of interaction between PAH2 domain of Sin3A and in vitro translated MAD” value ([1]; 35S-methionine labeled MAD, 15 μM peptide unless otherwise indicated) was “blocked interactions”, the “blocking of interaction between PAH2 domain of Sin3A and MAD immunoprecipitated from MDA-MB-231 cells” value ([1]; MAD immunoprecipitated from MDA-MB-231 cell lysates, 15 μM peptide) was “blocked interactions” and the “phenotypic change of cell morphology” value [2] was “cobblestone monolayers and well defined cell-cell contact accompanied by cell growth contact inhibition”. The “increase in luciferase activity compared to GAL4 DBD-Sin3B and VP16AD-MAD co-expression” value (Sin3B and MAD) was “confirmed, albeit to a lesser degree”.
